From IntAct's records for PubMed 35512704

B1: Mothers against decapentaplegic homolog 4 (Homo sapiens), Q13485 (parent)
chain: MDNMSITNTPTSNDACLSIVHSLMCHRQGGESETFAKRAIESLVKKLKEKKDELDSLITAITTNGAHPSKCVTIQRTLDGRLQVAGRKGFPHVIYARLWRWPDLHKNELKHVKYCQYAFDLKCDSVCVNPYHYERVVSPGIDLSGLTLQSNAPSSMMVKDEYVHDFEGQPSLSTEGHSIQTIQHPPSNRASTETYSTPALLAPSESNATSTANFPNIPVASTSQPASILGGSHSEGLLQIASGPQPGQQQNGFTGQPATYHHNSTTTWTGSRTAPYTPNLPHHQNGHLQHHPPMPPHPGHYWPVHNELAFQPPISNHPAPEYWCSIAYFEMDVQVGETFKVPSSCPIVTVDGYVDPSGGDRFCLGQLSNVHRTEAIERARLHIGKGVQLECKGEGDVWVRCLSDHAVFVQSYYLDREAGRAPGDAVHKIYPSAYIKVFDLRQCHRQMQQQAATAQAAAAAQAAAVAGNIPGPGSVGGIAPAISLSAAAGIGVDDLRRLCILRMSFVKGWGPDYPRQSIKETPCWIEIHLHRALQLLDEVLHTMPIADPQPLD
partner: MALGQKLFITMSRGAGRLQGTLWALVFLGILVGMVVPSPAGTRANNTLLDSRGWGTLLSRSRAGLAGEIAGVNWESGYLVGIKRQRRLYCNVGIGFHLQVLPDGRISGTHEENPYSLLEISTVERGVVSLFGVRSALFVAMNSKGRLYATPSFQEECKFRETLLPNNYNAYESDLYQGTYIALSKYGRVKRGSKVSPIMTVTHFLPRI
B2: Mothers against decapentaplegic homolog 4 (Homo sapiens), Q13485 (parent)
chain: B1 chain
partner: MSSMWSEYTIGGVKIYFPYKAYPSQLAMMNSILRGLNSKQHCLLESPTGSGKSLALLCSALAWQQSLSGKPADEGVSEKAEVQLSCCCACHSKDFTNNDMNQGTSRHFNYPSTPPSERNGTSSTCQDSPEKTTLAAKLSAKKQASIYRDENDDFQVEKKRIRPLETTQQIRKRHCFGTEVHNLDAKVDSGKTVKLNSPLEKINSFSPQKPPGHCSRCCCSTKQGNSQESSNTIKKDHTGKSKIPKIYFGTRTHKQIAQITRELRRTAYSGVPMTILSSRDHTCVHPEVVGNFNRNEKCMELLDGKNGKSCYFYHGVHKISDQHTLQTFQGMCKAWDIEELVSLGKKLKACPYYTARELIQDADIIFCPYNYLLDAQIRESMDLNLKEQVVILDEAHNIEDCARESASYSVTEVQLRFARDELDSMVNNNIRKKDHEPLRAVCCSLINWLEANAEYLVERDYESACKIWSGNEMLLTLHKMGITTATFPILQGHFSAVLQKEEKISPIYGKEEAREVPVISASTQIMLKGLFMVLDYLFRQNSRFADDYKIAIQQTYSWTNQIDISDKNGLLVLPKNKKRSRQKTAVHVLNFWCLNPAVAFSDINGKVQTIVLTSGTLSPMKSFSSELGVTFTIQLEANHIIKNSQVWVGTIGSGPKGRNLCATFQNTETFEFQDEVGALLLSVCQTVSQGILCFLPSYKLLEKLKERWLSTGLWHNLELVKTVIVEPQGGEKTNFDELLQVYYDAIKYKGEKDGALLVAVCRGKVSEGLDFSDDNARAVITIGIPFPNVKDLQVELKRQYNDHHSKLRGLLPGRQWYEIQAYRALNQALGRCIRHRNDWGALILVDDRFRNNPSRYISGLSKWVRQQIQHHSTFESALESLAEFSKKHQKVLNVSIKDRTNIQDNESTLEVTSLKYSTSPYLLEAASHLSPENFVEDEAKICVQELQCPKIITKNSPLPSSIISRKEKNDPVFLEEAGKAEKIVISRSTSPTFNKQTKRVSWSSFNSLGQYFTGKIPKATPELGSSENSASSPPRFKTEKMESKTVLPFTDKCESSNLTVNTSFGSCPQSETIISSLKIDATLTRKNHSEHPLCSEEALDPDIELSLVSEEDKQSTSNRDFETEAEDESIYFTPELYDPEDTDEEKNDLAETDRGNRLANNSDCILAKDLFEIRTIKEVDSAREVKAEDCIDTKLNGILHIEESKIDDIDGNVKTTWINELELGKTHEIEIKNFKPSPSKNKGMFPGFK
B3: Mothers against decapentaplegic homolog 4 (Homo sapiens), Q13485 (parent)
chain: B1 chain
partner: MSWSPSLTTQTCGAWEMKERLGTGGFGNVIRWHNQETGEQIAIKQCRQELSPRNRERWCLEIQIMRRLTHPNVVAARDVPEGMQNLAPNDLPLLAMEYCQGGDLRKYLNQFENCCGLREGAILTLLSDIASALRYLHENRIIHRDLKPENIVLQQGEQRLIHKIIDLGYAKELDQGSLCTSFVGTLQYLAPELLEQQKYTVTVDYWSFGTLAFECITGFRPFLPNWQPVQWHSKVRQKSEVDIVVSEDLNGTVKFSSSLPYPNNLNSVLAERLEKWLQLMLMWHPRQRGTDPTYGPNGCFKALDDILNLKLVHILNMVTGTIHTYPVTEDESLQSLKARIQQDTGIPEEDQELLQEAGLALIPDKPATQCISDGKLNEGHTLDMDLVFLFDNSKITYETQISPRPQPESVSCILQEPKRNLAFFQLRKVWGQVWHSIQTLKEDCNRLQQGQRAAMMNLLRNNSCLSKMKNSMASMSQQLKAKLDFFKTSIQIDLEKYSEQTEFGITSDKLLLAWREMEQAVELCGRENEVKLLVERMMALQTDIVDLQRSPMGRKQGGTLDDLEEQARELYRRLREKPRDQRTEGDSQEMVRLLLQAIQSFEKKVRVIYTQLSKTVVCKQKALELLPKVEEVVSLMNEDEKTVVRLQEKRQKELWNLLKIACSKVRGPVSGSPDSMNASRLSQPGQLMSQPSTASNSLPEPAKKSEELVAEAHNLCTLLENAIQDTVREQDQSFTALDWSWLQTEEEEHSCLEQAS
B4: Mothers against decapentaplegic homolog 4 (Homo sapiens), Q13485 (parent)
chain: B1 chain
partner: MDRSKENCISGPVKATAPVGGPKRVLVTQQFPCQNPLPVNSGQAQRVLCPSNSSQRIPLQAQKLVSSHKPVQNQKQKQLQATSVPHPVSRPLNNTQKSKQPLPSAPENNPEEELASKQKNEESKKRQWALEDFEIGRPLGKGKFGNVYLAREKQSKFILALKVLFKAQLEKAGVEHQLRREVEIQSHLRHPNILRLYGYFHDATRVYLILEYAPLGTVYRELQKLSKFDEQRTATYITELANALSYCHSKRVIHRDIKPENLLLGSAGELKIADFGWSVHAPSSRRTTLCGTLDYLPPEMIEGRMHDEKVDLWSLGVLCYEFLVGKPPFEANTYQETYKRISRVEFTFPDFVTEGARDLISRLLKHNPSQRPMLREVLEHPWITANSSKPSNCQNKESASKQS
B5: Mothers against decapentaplegic homolog 4 (Homo sapiens), Q13485 (parent)
chain: B1 chain
partner: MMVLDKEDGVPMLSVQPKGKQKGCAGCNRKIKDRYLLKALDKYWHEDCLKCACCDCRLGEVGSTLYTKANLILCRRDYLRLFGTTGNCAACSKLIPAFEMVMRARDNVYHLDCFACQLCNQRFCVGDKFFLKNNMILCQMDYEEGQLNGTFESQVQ
B6: Mothers against decapentaplegic homolog 4 (Homo sapiens), Q13485 (parent)
chain: B1 chain
partner: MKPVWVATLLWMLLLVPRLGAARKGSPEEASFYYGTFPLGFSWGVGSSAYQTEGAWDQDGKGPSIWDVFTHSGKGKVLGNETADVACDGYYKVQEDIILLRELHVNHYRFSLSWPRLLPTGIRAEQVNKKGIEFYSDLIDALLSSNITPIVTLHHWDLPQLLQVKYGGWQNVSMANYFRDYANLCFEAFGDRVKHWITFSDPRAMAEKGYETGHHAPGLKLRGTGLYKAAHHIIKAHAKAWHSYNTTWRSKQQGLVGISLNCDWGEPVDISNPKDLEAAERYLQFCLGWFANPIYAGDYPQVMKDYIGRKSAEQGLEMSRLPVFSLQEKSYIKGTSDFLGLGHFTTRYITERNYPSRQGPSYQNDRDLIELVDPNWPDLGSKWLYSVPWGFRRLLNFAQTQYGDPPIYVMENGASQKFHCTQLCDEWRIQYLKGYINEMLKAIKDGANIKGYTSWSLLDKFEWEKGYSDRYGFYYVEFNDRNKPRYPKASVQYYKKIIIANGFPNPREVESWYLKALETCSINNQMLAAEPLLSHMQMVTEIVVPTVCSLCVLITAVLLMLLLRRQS
B7: Mothers against decapentaplegic homolog 4 (Homo sapiens), Q13485 (parent)
chain: B1 chain
partner: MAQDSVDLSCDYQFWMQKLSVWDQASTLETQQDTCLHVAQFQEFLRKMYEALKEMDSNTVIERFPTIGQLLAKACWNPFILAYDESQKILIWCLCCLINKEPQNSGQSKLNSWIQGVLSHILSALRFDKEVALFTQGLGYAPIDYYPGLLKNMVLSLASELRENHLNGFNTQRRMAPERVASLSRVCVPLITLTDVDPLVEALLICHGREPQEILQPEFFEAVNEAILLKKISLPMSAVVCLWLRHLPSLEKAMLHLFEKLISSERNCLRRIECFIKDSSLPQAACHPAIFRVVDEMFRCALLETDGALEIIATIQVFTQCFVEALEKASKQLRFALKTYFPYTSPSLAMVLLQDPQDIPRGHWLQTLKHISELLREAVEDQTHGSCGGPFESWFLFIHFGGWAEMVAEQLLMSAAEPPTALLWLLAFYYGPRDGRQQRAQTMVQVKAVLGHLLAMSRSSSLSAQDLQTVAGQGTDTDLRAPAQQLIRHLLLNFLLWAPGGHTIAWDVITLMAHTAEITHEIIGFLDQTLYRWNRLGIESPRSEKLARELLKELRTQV

Variants of: B1
Details: with fgf6_human FGF6, P10767

Variant | effect of a mutation on the interaction
R361H | with no effect

Variants of: B1
Details: with fgf6_human FGF6, P10767
Remark: another data set of the same source

Variant | effect of a mutation on the interaction
R361C | with no effect

Variants of: B1
Details: with fgf6_human FGF6, P10767
Remark: another data set of the same source

Variant | effect of a mutation on the interaction
D351H | with no effect

Variants of: B1
Details: with fgf6_human FGF6, P10767
Remark: another data set of the same source

Variant | effect of a mutation on the interaction
G386D | with no effect

Variants of: B2
Details: with fancj_human BRIP1, Q9BX63

Variant | effect of a mutation on the interaction
G386D | with no effect

Variants of: B2
Details: with fancj_human BRIP1, Q9BX63
Remark: another data set of the same source

Variant | effect of a mutation on the interaction
D351H | with no effect

Variants of: B3
Details: with ikkb_human IKBKB

Variant | effect of a mutation on the interaction
D351H | with no effect

Variants of: B3
Details: with ikkb_human IKBKB
Remark: another data set of the same source

Variant | effect of a mutation on the interaction
G386D | with no effect

Variants of: B3
Details: with ikkb_human IKBKB
Remark: another data set of the same source

Variant | effect of a mutation on the interaction
R361C | with no effect

Variants of: B3
Details: with ikkb_human IKBKB
Remark: another data set of the same source

Variant | effect of a mutation on the interaction
R361H | with no effect

Variants of: B4
Details: with aurka_human AURKA

Variant | effect of a mutation on the interaction
R361H | with no effect

Variants of: B4
Details: with aurka_human AURKA
Remark: another data set of the same source

Variant | effect of a mutation on the interaction
R361C | with no effect

Variants of: B4
Details: with aurka_human AURKA
Remark: another data set of the same source

Variant | effect of a mutation on the interaction
D351H | with no effect

Variants of: B4
Details: with aurka_human AURKA
Remark: another data set of the same source

Variant | effect of a mutation on the interaction
G386D | with no effect

Variants of: B5
Details: with rbtn1_human LMO1, P25800

Variant | effect of a mutation on the interaction
D351H | with no effect

Variants of: B5
Details: with rbtn1_human LMO1, P25800
Remark: another data set of the same source

Variant | effect of a mutation on the interaction
R361H | with no effect

Variants of: B5
Details: with rbtn1_human LMO1, P25800
Remark: another data set of the same source

Variant | effect of a mutation on the interaction
R361C | with no effect

Variants of: B5
Details: with rbtn1_human LMO1, P25800
Remark: another data set of the same source

Variant | effect of a mutation on the interaction
G386D | with no effect

Variants of: B6
Details: with lctl_human LCTL

Variant | effect of a mutation on the interaction
G386D | with no effect

Variants of: B6
Details: with lctl_human LCTL
Remark: another data set of the same source

Variant | effect of a mutation on the interaction
D351H | with no effect

Variants of: B7
Details: with fancc_human FANCC

Variant | effect of a mutation on the interaction
R361H | with no effect

Variants of: B7
Details: with fancc_human FANCC
Remark: another data set of the same source

Variant | effect of a mutation on the interaction
R361C | with no effect

Variants of: B7
Details: with fancc_human FANCC
Remark: another data set of the same source

Variant | effect of a mutation on the interaction
G386D | with no effect
